Assays:
Assay in all cases: co-IP (IP: Strep, western blot bands quantified with ImageJ)
[1] = biological target: GP4 of PRRSV HuN4-F112, Strep-tagged (pCAGGS-GP4-Strep); conditions: plasmids cotransfected into HEK-293T cells; parent: est. 0.86; read off a plot
[2] = biological target: CD163 receptor, HA-tagged (pCAGGS-CD163-HA) (UniProt Q2VL90); conditions: plasmids cotransfected into HEK-293T cells, read off a plot
[3] = biological target: GP2a of PRRSV HuN4-F112, Strep-tagged (pCAGGS-GP2a-Strep); conditions: chain shown with the change; plasmids cotransfected into HEK-293T cells; parent: est. 2.9; read off a plot

In the case of “CD163 receptor, HA-tagged (pCAGGS-CD163-HA) (from UniProt Q2VL90) R561A”, the response (relative ratio of CD163/GP4) [1] is reported as 0.64.

With “CD163 receptor, HA-tagged (pCAGGS-CD163-HA) (from UniProt Q2VL90) R561del” the response (relative ratio of CD163/GP4) [1] was 0.27.

With “GP2a of PRRSV HuN4-F112, Strep-tagged (pCAGGS-GP2a-Strep) V118I” the response (relative ratio of CD163/GP2) ([2]; parent: est. 0.18) was 0.67.

Molecule “GP2a of PRRSV HuN4-F112, Strep-tagged (pCAGGS-GP2a-Strep) V118del” has a response (relative ratio of CD163/GP2) ([2]; parent: est. 0.61) of 0.23.

Molecule “GP4 of PRRSV HuN4-F112, Strep-tagged (pCAGGS-GP4-Strep) N43D” has a response (relative ratio of CD163/GP4) ([2]; parent: est. 0.74) of 1.4.

“GP4 of PRRSV HuN4-F112, Strep-tagged (pCAGGS-GP4-Strep) N43del” was tested, and the response (relative ratio of CD163/GP4) ([2]; parent: est. 1.2) was 0.57.

B1: CD163 receptor, HA-tagged (pCAGGS-CD163-HA), Q2VL90 R561del (protein)
chain: KDKELRLTGGENKCSGRVEVKVQEEWGTVCNNGWDMDVVSVVCRQLGCPTAIKATGWANFSAGSGRIWMDHVSCRGNESALWDCKHDGWGKHNCTHQQDAGVTCSDGSDLEMGLVNGGNRCLGRIEVKFQGRWGTVCDDNFNINHASVVCKQLECGSAVSFSGSANFGEGSGPIWFDDLVCNGNESALWNCKHEGWGKHNCDHAEDAGVICLNGADLKLRVVDGVTECSGRLEVKFQGEWGTICDDGWDSDDAAVACKQLGCPTAVTAIGRVNASEGTGHIWLDSVSCHGHESALWQCRHHEWGKHYCNHDEDAGVTCSDGSDLELRLKGGGSHCAGTVEVEIQKLVGKVCDRSWGLKEADVVCRQLGCGSALKTSYQVYSKTKATNTWLFVSSCNGNETSLWDCKNWQWGGLSCDHYDEAKITCSAHRKPRLVGGDIPCSGRVEVQHGDTWGTVCDSDFSLEAASVLCRELQCGTVVSLLGGAHFGEGSGQIWAEEFQCEGHESHLSLCPVAPPDGTCSHSRDVGVVCSRYTQIRLVNGKTPCEGRVELNILGSWGSLCNSHWDMEDAHVLCQQLKCGVALSIPGGAPFGKGSEQVWRHMFHCTGTEKHMGDCSVTALGASLCSSGQVASVICSGNQSQTLSPCNSSSSDPSSSIISEENGVACIGSGQLRLVDGGGRCAGRVEVYHEGSWGTICDDSWDLNDAHVVCKQLSCGWAINATGSAHFGEGTGPIWLDEINCNGKESHIWQCHSHGWGRHNCRHKEDAGVICSEFMSLRLISENSRETCAGRLEVFYNGAWGSVGRNSMSPATVGVVCRQLGCADRGDISPASSDKTVSRHMWVDNVQCPKGPDTLWQCPSSPWKKRLASPSEETWITCANKIRLQEGNTNCSGRVEIWYGGSWGTVCDDSWDLEDAQVVCRQLGCGSALEAGKEAAFGQGTGPIWLNEVKCKGNETSLWDCPARSWGHSDCGHKEDAAVTCSEIAKSRESLHATGRSSFVALAIFGVILLACLIAFLIWTQKRRQRQRLSVFSGGENSVHQIQYREMNSCLKADETDMLNPSGDHSEVQ
B1 showed a response (relative ratio of CD163/GP2) [3] of 1.8.

B2: CD163 receptor, HA-tagged (pCAGGS-CD163-HA), Q2VL90 R561A (protein)
chain: KDKELRLTGGENKCSGRVEVKVQEEWGTVCNNGWDMDVVSVVCRQLGCPTAIKATGWANFSAGSGRIWMDHVSCRGNESALWDCKHDGWGKHNCTHQQDAGVTCSDGSDLEMGLVNGGNRCLGRIEVKFQGRWGTVCDDNFNINHASVVCKQLECGSAVSFSGSANFGEGSGPIWFDDLVCNGNESALWNCKHEGWGKHNCDHAEDAGVICLNGADLKLRVVDGVTECSGRLEVKFQGEWGTICDDGWDSDDAAVACKQLGCPTAVTAIGRVNASEGTGHIWLDSVSCHGHESALWQCRHHEWGKHYCNHDEDAGVTCSDGSDLELRLKGGGSHCAGTVEVEIQKLVGKVCDRSWGLKEADVVCRQLGCGSALKTSYQVYSKTKATNTWLFVSSCNGNETSLWDCKNWQWGGLSCDHYDEAKITCSAHRKPRLVGGDIPCSGRVEVQHGDTWGTVCDSDFSLEAASVLCRELQCGTVVSLLGGAHFGEGSGQIWAEEFQCEGHESHLSLCPVAPAPDGTCSHSRDVGVVCSRYTQIRLVNGKTPCEGRVELNILGSWGSLCNSHWDMEDAHVLCQQLKCGVALSIPGGAPFGKGSEQVWRHMFHCTGTEKHMGDCSVTALGASLCSSGQVASVICSGNQSQTLSPCNSSSSDPSSSIISEENGVACIGSGQLRLVDGGGRCAGRVEVYHEGSWGTICDDSWDLNDAHVVCKQLSCGWAINATGSAHFGEGTGPIWLDEINCNGKESHIWQCHSHGWGRHNCRHKEDAGVICSEFMSLRLISENSRETCAGRLEVFYNGAWGSVGRNSMSPATVGVVCRQLGCADRGDISPASSDKTVSRHMWVDNVQCPKGPDTLWQCPSSPWKKRLASPSEETWITCANKIRLQEGNTNCSGRVEIWYGGSWGTVCDDSWDLEDAQVVCRQLGCGSALEAGKEAAFGQGTGPIWLNEVKCKGNETSLWDCPARSWGHSDCGHKEDAAVTCSEIAKSRESLHATGRSSFVALAIFGVILLACLIAFLIWTQKRRQRQRLSVFSGGENSVHQIQYREMNSCLKADETDMLNPSGDHSEVQ
B2 showed a response (relative ratio of CD163/GP2) [3] of 1.8.

From PMC12456131
